Reference: the supplement of paper PMC9112550, “Optimization of the antimicrobial peptide Bac7 by deep mutational scanning” (BMC Biology, 2022)

System: Escherichia coli TOP10
Assay: shrunken log2 fold change of peptide-encoding DNA abundance (4.5 h post-induction vs induction); higher = less antimicrobial activity (less host growth inhibition)
Conditions: time post-induction: 4.5 h; library: site-saturation at positions 5, 18, 19, 20
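Note: peptides expressed intracellularly from a pBAD plasmid library in pooled LB shake-flask culture, induced with 0.3% L-arabinose, DNA abundance read by NGS, three biological replicates, DESeq2 with apeglm shrinkage.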

Row | Sequence | shrunken log2 fold change
1 | RRIRKRPPRLPRPRPRPCNTPRP | -0.113
2 | RRIRKRPPRLPRPRPRPCNYPRP | -0.0312
3 | RRIRKRPPRLPRPRPRPCPKPRP | 0.29
4 | RRIRKRPPRLPRPRPRPCQTPRP | 0.233
5 | RRIRKRPPRLPRPRPRPCRRPRP | 0.112
6 | RRIRKRPPRLPRPRPRPCTRPRP | -0.103
7 | RRIRKRPPRLPRPRPRPCVFPRP | 0.204
8 | RRIRKRPPRLPRPRPRPCVHPRP | -0.266
9 | RRIRKRPPRLPRPRPRPCWKPRP | 0.0714
10 | RRIRKRPPRLPRPRPRPCYKPRP | 0.0747
11 | RRIRKRPPRLPRPRPRPCYQPRP | -0.42
12 | RRIRKRPPRLPRPRPRPCYYPRP | -0.48
13 | RRIRKRPPRLPRPRPRPDAAPRP | 0.976
14 | RRIRKRPPRLPRPRPRPDADPRP | 0.163
15 | RRIRKRPPRLPRPRPRPDCIPRP | 0.75
16 | RRIRKRPPRLPRPRPRPDCQPRP | 0.00443
17 | RRIRKRPPRLPRPRPRPDDLPRP | 0.0928
18 | RRIRKRPPRLPRPRPRPDHGPRP | 1.01
19 | RRIRKRPPRLPRPRPRPDKKPRP | -0.117
20 | RRIRKRPPRLPRPRPRPDLFPRP | 0.529
21 | RRIRKRPPRLPRPRPRPDMPPRP | 0.122
22 | RRIRKRPPRLPRPRPRPDNCPRP | -0.0122
23 | RRIRKRPPRLPRPRPRPDNYPRP | -0.153
24 | RRIRKRPPRLPRPRPRPDPLPRP | 0.282
25 | RRIRKRPPRLPRPRPRPDQSPRP | 0.0875

Row | Sequence | shrunken log2 fold change
26 | RRIRKRPPRLPRPRPRPDRGPRP | 0.0561
27 | RRIRKRPPRLPRPRPRPDRNPRP | 0.158
28 | RRIRKRPPRLPRPRPRPDRRPRP | 0.18
29 | RRIRKRPPRLPRPRPRPDSFPRP | -0.115
30 | RRIRKRPPRLPRPRPRPDSHPRP | -0.427
31 | RRIRKRPPRLPRPRPRPDWCPRP | 0.292
32 | RRIRKRPPRLPRPRPRPDYDPRP | 0.143
33 | RRIRKRPPRLPRPRPRPDYHPRP | -0.244
34 | RRIRKRPPRLPRPRPRPDYYPRP | 0.0521
35 | RRIRKRPPRLPRPRPRPEALPRP | 1.67
36 | RRIRKRPPRLPRPRPRPEAQPRP | 0.29
37 | RRIRKRPPRLPRPRPRPEFLPRP | -0.00158
38 | RRIRKRPPRLPRPRPRPEGIPRP | -0.0332
39 | RRIRKRPPRLPRPRPRPEGPPRP | 0.447
40 | RRIRKRPPRLPRPRPRPEHFPRP | 0.0394
41 | RRIRKRPPRLPRPRPRPEHRPRP | -0.0428
42 | RRIRKRPPRLPRPRPRPELTPRP | 2.29
43 | RRIRKRPPRLPRPRPRPEMAPRP | 1.73
44 | RRIRKRPPRLPRPRPRPEMNPRP | 2.14
45 | RRIRKRPPRLPRPRPRPEMVPRP | 0.422
46 | RRIRKRPPRLPRPRPRPENEPRP | 0.918
47 | RRIRKRPPRLPRPRPRPENVPRP | -0.00931
48 | RRIRKRPPRLPRPRPRPEPFPRP | 0.0238
49 | RRIRKRPPRLPRPRPRPEPGPRP | 0.608
50 | RRIRKRPPRLPRPRPRPEPIPRP | -0.0204

Row | Sequence | shrunken log2 fold change
51 | RRIRKRPPRLPRPRPRPEQQPRP | 1.43
52 | RRIRKRPPRLPRPRPRPEVFPRP | 0.403
53 | RRIRKRPPRLPRPRPRPEVKPRP | 0.085
54 | RRIRKRPPRLPRPRPRPEVSPRP | 0.219
55 | RRIRKRPPRLPRPRPRPEWWPRP | 0.0708
56 | RRIRKRPPRLPRPRPRPEYRPRP | 0.012
57 | RRIRKRPPRLPRPRPRPFCHPRP | 0.00474
58 | RRIRKRPPRLPRPRPRPFCRPRP | 0.558
59 | RRIRKRPPRLPRPRPRPFEYPRP | -0.00133
60 | RRIRKRPPRLPRPRPRPFHMPRP | -0.424
61 | RRIRKRPPRLPRPRPRPFIAPRP | -0.0583
62 | RRIRKRPPRLPRPRPRPFIDPRP | 0.0226
63 | RRIRKRPPRLPRPRPRPFKLPRP | 0.0306
64 | RRIRKRPPRLPRPRPRPFKVPRP | -0.0542
65 | RRIRKRPPRLPRPRPRPFLNPRP | 0.00977
66 | RRIRKRPPRLPRPRPRPFNPPRP | -0.0407
67 | RRIRKRPPRLPRPRPRPFSFPRP | 0.0267
68 | RRIRKRPPRLPRPRPRPFTQPRP | -0.332
69 | RRIRKRPPRLPRPRPRPFVCPRP | 0.0717
70 | RRIRKRPPRLPRPRPRPFWAPRP | 0.659
71 | RRIRKRPPRLPRPRPRPFWCPRP | -0.0466
72 | RRIRKRPPRLPRPRPRPFWHPRP | 0.00192
73 | RRIRKRPPRLPRPRPRPFWTPRP | 0.0312
74 | RRIRKRPPRLPRPRPRPFYDPRP | 0.0223
75 | RRIRKRPPRLPRPRPRPFYMPRP | -0.117

Row | Sequence | shrunken log2 fold change
76 | RRIRKRPPRLPRPRPRPGACPRP | 0.237
77 | RRIRKRPPRLPRPRPRPGALPRP | 0.656
78 | RRIRKRPPRLPRPRPRPGCHPRP | 0.0456
79 | RRIRKRPPRLPRPRPRPGCTPRP | 0.517
80 | RRIRKRPPRLPRPRPRPGDMPRP | 0.277
81 | RRIRKRPPRLPRPRPRPGFVPRP | 0.259
82 | RRIRKRPPRLPRPRPRPGHEPRP | 0.127
83 | RRIRKRPPRLPRPRPRPGINPRP | 0.369
84 | RRIRKRPPRLPRPRPRPGKHPRP | 0.258
85 | RRIRKRPPRLPRPRPRPGKIPRP | 0.494
86 | RRIRKRPPRLPRPRPRPGKNPRP | -0.181
87 | RRIRKRPPRLPRPRPRPGLLPRP | 0.494
88 | RRIRKRPPRLPRPRPRPGMFPRP | -0.126
89 | RRIRKRPPRLPRPRPRPGMPPRP | 0.625
90 | RRIRKRPPRLPRPRPRPGNQPRP | 0.0471
91 | RRIRKRPPRLPRPRPRPGNWPRP | 0.701
92 | RRIRKRPPRLPRPRPRPGQRPRP | 0.328
93 | RRIRKRPPRLPRPRPRPGQYPRP | 0.0797
94 | RRIRKRPPRLPRPRPRPGTEPRP | 0.542
95 | RRIRKRPPRLPRPRPRPGVCPRP | 0.87
96 | RRIRKRPPRLPRPRPRPGVPPRP | 0.364
97 | RRIRKRPPRLPRPRPRPGVSPRP | 0.497
98 | RRIRKRPPRLPRPRPRPGVTPRP | 0.409
99 | RRIRKRPPRLPRPRPRPGWNPRP | 0.106
100 | RRIRKRPPRLPRPRPRPGYTPRP | -0.0679

Row | Sequence | shrunken log2 fold change
101 | RRIRKRPPRLPRPRPRPGYWPRP | -0.00764
102 | RRIRKRPPRLPRPRPRPHAEPRP | 0.126
103 | RRIRKRPPRLPRPRPRPHDIPRP | 0.168
104 | RRIRKRPPRLPRPRPRPHEKPRP | 1.1
105 | RRIRKRPPRLPRPRPRPHGQPRP | -0.0371
106 | RRIRKRPPRLPRPRPRPHHGPRP | -0.11
107 | RRIRKRPPRLPRPRPRPHITPRP | -0.167
108 | RRIRKRPPRLPRPRPRPHLMPRP | -0.129
109 | RRIRKRPPRLPRPRPRPHMKPRP | -0.0471
110 | RRIRKRPPRLPRPRPRPHMMPRP | 0.217
111 | RRIRKRPPRLPRPRPRPHNTPRP | -0.152
112 | RRIRKRPPRLPRPRPRPHPSPRP | 0.163
113 | RRIRKRPPRLPRPRPRPHRFPRP | -0.0599
114 | RRIRKRPPRLPRPRPRPHRLPRP | 0.164
115 | RRIRKRPPRLPRPRPRPHRNPRP | -0.167
116 | RRIRKRPPRLPRPRPRPHSKPRP | 0.0726
117 | RRIRKRPPRLPRPRPRPHTHPRP | -0.0896
118 | RRIRKRPPRLPRPRPRPHVMPRP | 0.0754
119 | RRIRKRPPRLPRPRPRPHVPPRP | 0.207
120 | RRIRKRPPRLPRPRPRPHVSPRP | -0.00259
121 | RRIRKRPPRLPRPRPRPHWHPRP | -0.0666
122 | RRIRKRPPRLPRPRPRPHWKPRP | -0.00804
123 | RRIRKRPPRLPRPRPRPHYQPRP | -0.101
124 | RRIRKRPPRLPRPRPRPHYYPRP | -0.0852
125 | RRIRKRPPRLPRPRPRPIAYPRP | -0.0799

Row | Sequence | shrunken log2 fold change
126 | RRIRKRPPRLPRPRPRPICTPRP | -0.0207
127 | RRIRKRPPRLPRPRPRPIDEPRP | -0.148
128 | RRIRKRPPRLPRPRPRPIDRPRP | -0.0769
129 | RRIRKRPPRLPRPRPRPIFHPRP | 0.381
130 | RRIRKRPPRLPRPRPRPIHDPRP | 0.00115
131 | RRIRKRPPRLPRPRPRPIIHPRP | -0.0792
132 | RRIRKRPPRLPRPRPRPIKCPRP | -0.29
133 | RRIRKRPPRLPRPRPRPILCPRP | 0.00753
134 | RRIRKRPPRLPRPRPRPILEPRP | 0.261
135 | RRIRKRPPRLPRPRPRPILKPRP | 0.117
136 | RRIRKRPPRLPRPRPRPIMKPRP | 0.16
137 | RRIRKRPPRLPRPRPRPIMQPRP | -0.0251
138 | RRIRKRPPRLPRPRPRPIPAPRP | 0.945
139 | RRIRKRPPRLPRPRPRPIQMPRP | -0.107
140 | RRIRKRPPRLPRPRPRPIRRPRP | 0.0536
141 | RRIRKRPPRLPRPRPRPIRVPRP | -0.0018
142 | RRIRKRPPRLPRPRPRPISGPRP | -7.33e-05
143 | RRIRKRPPRLPRPRPRPISPPRP | 0.305
144 | RRIRKRPPRLPRPRPRPITQPRP | -0.00651
145 | RRIRKRPPRLPRPRPRPIWQPRP | 0.163
146 | RRIRKRPPRLPRPRPRPIYAPRP | 0.144
147 | RRIRKRPPRLPRPRPRPIYSPRP | -0.41
148 | RRIRKRPPRLPRPRPRPKDNPRP | 0.297
149 | RRIRKRPPRLPRPRPRPKDPPRP | 0.367
150 | RRIRKRPPRLPRPRPRPKDTPRP | 0.26
